The target of assay [1] is human IL-13 wild type (human) (UniProt P35225). The assay is described as follows: SPR (Biacore). In general terms: In SPR one partner is held on a chip, and binding of the other changes the refractive index at the surface.
Assay [2] concerns the target human IL-13 variant (R130Q) (human) (UniProt P35225). The assay is described as follows: SPR (Biacore).
Assay [3] addresses human IL-13 wild type (human) (UniProt P35225). In words: cell surface-based receptor binding assay, blocking 125I-IL-13 binding to IL-13Rα2-transfected COS cells.
Assay [4] has the same target. In words: ELISA-based receptor binding assay, blocking biotin-IL-13 binding to IL-13Rα2/Fc.
The target is the same in assay [5]. In words: cell surface-based receptor binding assay, IL-13 binding to IL-13Rα2 on COS cells.
The target is the same in assay [6]. In words: ELISA-based receptor binding assay, IL-13 binding to IL-13Rα2/Fc.

Sequence of human IL-13 wild type (human) (P35225 other isoform, or with tags, fused parts or gaps limits assumed): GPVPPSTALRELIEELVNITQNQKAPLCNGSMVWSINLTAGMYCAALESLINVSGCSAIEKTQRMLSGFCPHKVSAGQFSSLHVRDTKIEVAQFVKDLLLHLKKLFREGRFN
Sequence of human IL-13 variant (R130Q) (human) (P35225 35-146 limits assumed, stated change not applied): as the sequence (P35225 other isoform, or with tags, fused parts or gaps limits assumed) above, with R110Q counted along it

B1: MJ2-7 (antibody, from another filing, V domains shown)
VH: EVQLQQSGAELVKPGASVKLSCTGSGFNIKDTYIHWVKQRPEQGLEWIGRIDPANDNIKYDPKFQGKATITADTSSNTAYLQLNSLTSEDTAVYYCARSEENWYDFFDYWGQGTTLTVSS
VL: DVLMTQTPLSLPVSLGDQASISCRSSQSIVHSNGNTYLEWYLQKPGQSPKLLIYKVSNRFSGVPDRFSGSGSGTDFTLKISRVEAEDLGVYYCFQGSHIPYTFGGGTKLEIK
What is called Kd is the free concentration of one partner at which half of the binding sites on the other are occupied at equilibrium, for simple one-to-one binding. Read a low Kd as tighter binding. The IC50 is the midpoint of a concentration-inhibition curve. Low readings indicate greater potency in that assay, high ones weaker potency in that assay. By % inhibition is commonly meant the drop in the measured response relative to a control, in per cent. A higher % inhibition goes with a response far below the control. In the case of B1, the Kd in assay [1] stood at 1.14 nM; in assay [2] it was 0.79 nM. Besides, the IC50 is 17.6 nM in assay [3] and 19 nM in assay [4]. Besides, the % inhibition at 100 nM in assay [5] was 70%; in assay [6], 60%.

Values taken from patent US20110165066A1.
